Measured values from patent US20160287696A1, “PAN POLLEN IMMUNOGENS AND METHODS AND USES FOR IMMUNE RESPONSE MODULATION” (LA JOLLA INSTITUTE FOR ALLERGY AND IMMUNOLOGY, priority 2013, published 2016).

System: cultured PBMCs of the allergic donors
Assay: ELISPOT of IL-5 or IFNg production by cultured PBMCs of TG allergic donors in response to peptide
Assay type: cell-based, human
Conditions: for NTGA's containing at least one T cell epitope, Th+ (Col 2): NTGA number given = criterion met, TG allergic donors n=20; for No of PG+ & th+ peptides per NTGA / No of PP & Th+ peptides per NTGA: Table 6; for No of PG+ & th+ peptides per NTGA: PG+ peptides recognized by T cells of grass allergic donors (n=20); for No of PP & Th+ peptides per NTGA: PP peptides recognized by T cells of grass allergic donors (n=20); for # Th+: Table 7, peptides per NTGA recognized by T cells of grass allergic donors (n=20)
Text: Table 1 indicates for each of the 397 PG+ peptides in which non-grass pollen species a matching peptide with either less than 3, less than 2 or zero mismatches are found. The number of TG grass allergic donors (n=20) with an in vitro T cell response to the TG peptide sequence is also shown.
A set of 93 proteins from Timothy grass (TG) pollen and the assembly of 822 peptides (15 mers) predicted to promiscuously bind HLA class II molecules shown in Table 9 and the immune reactivity in allergic donors have been reported in PCT application WO 2013/119863. […] Immune reactivity was determined by the production of IL-5 or IFNg from cultured PBMCs of the allergic donors in response to stimulation with a peptide and IL-5 and IFNg were measured by ELISPOT as described in Oseroff C et al, 2010.
In short, T cell immune reactivity was determined using PBMCs isolated from study participants and stored in liquid nitrogen until further use. For experimental testing, PBMCs were thawed and expanded in vitro with TG pollen extract (50 μg/mL) or the peptide pool ([…]). The TG extract and peptide pools had each been previously titrated to determine optimal stimulation concentrations.
Cytokine production by cultured PBMCs in response to antigen stimulation was measured by ELISPOT. Cells (1×10^5 cells/well) were plated and incubated with peptide (10 μg/mL), the peptide pool (5 μg/mL), or the TG extract (50 μg/mL). Phytohaemagglutinin (10 μg/mL) and medium alone were used as positive and negative controls, respectively. Samples were considered to produce a cytokine if 100 spot-forming cells (SFCs)/10^6 PBMCs were detected, with P .05 and a stimulation index of 2 or more. Criteria for individual peptides were the same except that a minimum of 20 SFCs were required for a sample to be counted as positive.
Table 3 lists the 397 PG+ peptides and indicates for each non-grass pollen species whether a matching peptide with either less than 3, less than 2 or zero mismatches could be detected. The immune reactivity of the TG peptide was assessed as the number of TG grass allergic donors (n=20) having in vitro T cell response against the TG peptide.

B1: NTGA 9: Phl p wild type sequence, Table 2 (protein)
chain: MAQLQETYACSPATERGRGILLGGDAKTDTIVYCAGRTVFFRRLDAPLDAWTYTEHAYPTTVARISPNGEWVASADVSGCVRVWGRNGDRALKAEFRPISGRVDDLRWSPDGLRIVVSGDGKGKSLVRAFMWDSGSTVGDFDGHSKRVLSCDFKPTRPFRIVTCGEDFLANYYEGPPFKFKHSIRDHSNFVNCIRYSPDGSKFITVSSDKRGLIYDGKTGDKIGELSSEDSHTGSIYAVSWSADSKQVLTVSADKTAKVWDIMEDASGKVNRTLVCTGIGGVDDMLVGCLWQNDHLVTVSLGGTFNVFSASNPDKEPVSFAGHLKTVSSLTYFPQSNPRTMLSTSYDGVIIRWIQGVGYGGRLIRKNNTQIKCFVAAEEELITSGYDNMVFRIPLNGDQCGDAESVDVGGQPNALNIAVQQPEFALITTDSAIVLLHKSTVTSTTKVSYTITSSAVSPDGTEAIVGAQDGKLRIYSISGDTLTEEAVLERHRGAITSIHYSPDVSMFASADANREAVAWDRATREIKLKNMLFHTARINCLAWSPDSRLVATGSIDTCAIIYDVDKPASSRITIKGAHLGGVHGLTFADNDTLVTAGEDACVRVWKLV
modifications: Phleum Pratense
  NTGA's containing at least one T cell epitope, Th+ (Col 2): 9
  No of PG+ & th+ peptides per NTGA: 3
  No of PP & Th+ peptides per NTGA: 1
  # Th+: 0

B2: NTGA 10: Phl p wild type sequence, Table 2 (protein)
chain: MVFSVTKKDTKPFDGQKPGTSGLRKKVTVFQQPHYLANFVQSTFNALPADQVKGATIVVSGDGRYFSKDAVQIITKMAAANGVRRVWVGQDSLLSTPAVSAIIRERIAADGSKATGAFILTASHNPGGPTEDFGIKYNMGNGGPAPESVTDKIFSNTTTITEYLIAEDLPDVDISALGVTTFTGPEGPFDVDVFDSATDYIKLMKTIFDFESIKKLLASPKFSFCFDGLHGVAGAYAKRMFVDELGASESSLLNCVPKEDFGGGHPDPNLTYAKELVERMGLGKSSSNVEPPEFGAAADGDADRNMVLGKRFFVTPSDSVAIIAANAVQSIPYFASGLKGVARSMPTSAALDVVAKNLNLKFFEVPTGWKFFGNLMDAGMCSVCGEESFGTGSDHIREKDGIWAVLAWLSIIAYKNKDNLGGDKLVSVEDIVLQHWATYGRHYYTRYDYENVDAEAAKELMANLVKMQSALSDVNKLIKEIQPDVAEVVSADEFEYKDPVDGSVSKHQGIRYLFGDGSRLVFRLSGTGSVGATIRIYIEQYEKDSSKTGRESSDALSPLVDVALKLSKIKEYTGRSAPTVIT
modifications: Phleum Pratense
  NTGA's containing at least one T cell epitope, Th+ (Col 2): 10
  No of PG+ & th+ peptides per NTGA: 3
  No of PP & Th+ peptides per NTGA: 0
  # Th+: 0

B3: NTGA 29: Phl p wild type sequence, Table 2 (protein)
chain: MASEKHFKYVILGGGVAAGYAAREFAKQGVQPGELAIISKESVAPYERPALSKGYLFPQNAARLPGFHTCVGSGGEKLLPEWYTEKGIELILSTEIVKADLASKTLTSAAGATFTYETLLIATGSSTIKLTDFGVQGAEANNILYLRDINDADKLVAAMQAKKDGKAVVVGGGYIGLELSAALKLNNFDVTMVYPEPWCMPRLFTAGIAHFYEGYYASKGINIVKGTVASGFDADANGDVAVVKLKDGRVLDANIVIVGVGGRPLTGLFKGQVDEEKGGLKTDTFFETSVAGVYAIGDVASFPMKLYNEPRRVEHVDHARKSAEQAVKAIKAKESGETVAEYDYLPYFYSRSFDIAWQFYGDNVGESVLFGDNDPAAAKAKFGTYWVKDGKVVGVFLEGGSADENQAIAKVARAQPLVAANLGELGKEGLDFAAKI
modifications: Phleum Pratense
  NTGA's containing at least one T cell epitope, Th+ (Col 2): 29
  No of PG+ & th+ peptides per NTGA: 1
  No of PP & Th+ peptides per NTGA: 1
  # Th+: 0

B4: NTGA 4: Phl p wild type sequence, Table 2 (protein)
chain: YIKLMKTIFDFESIKKLLASPKFSFCFDGLHGVAGAYAKRMFVDELGASESSLLNCVPKEDFGGGHPDPNLTYAKELVERMGLGKSSSNVEPPEFGAAADGDADRNMVLGKRFFVTPSDSVAIIAANAVQSIPYFASGLKGVARSMPTSAALDVVAKNLNLKFFEVPTGWKFFGNLMDAGMCSVCGEESFGTGSDHIREKDGIWAVLAWLSIIAYKNKDNLGGDKLVSVEDIVLQHWATYGRHYYTRYDYENVDAEAAKELMANLVKMQSALSDVNKLIKEIQPDVAEVVSADEFEYKDPVDGSVSKHQGIRYLFGDGSRLVFRLSGTGSVGATIRIYIEQYEKDSSKTGRESSDALSPLVDVALKLSKIKEYTGRSAPTVIT
modifications: Phleum Pratense
  NTGA's containing at least one T cell epitope, Th+ (Col 2): 4
  No of PG+ & th+ peptides per NTGA: 4
  No of PP & Th+ peptides per NTGA: 3
  # Th+: 0

B5: NTGA 26: Phl p wild type sequence, Table 2 (protein)
chain: GVFTDKDKAAAHMKGGAKKVVISAPSKDAPMFVVGVNEDKYTSDVNIVSNASCTTNCLAPLAKIINDNFGIVEGLMTTVHSITATQKTVDGPSSKDWRGGRAASFNIIPSSTGAAKAVGKVLPELNGKLTGMSFRVPTVDVSVVDLTVRIEKAASYEDIKKAIKAASEGNLKGIMGYVEEDLVSTDFIGDSRSSIFDAKAGIALNDNFVKLVSWYDNEWGY
modifications: Phleum Pratense
  NTGA's containing at least one T cell epitope, Th+ (Col 2): 26
  No of PG+ & th+ peptides per NTGA: 1
  No of PP & Th+ peptides per NTGA: 1
  # Th+: 0

B6: NTGA 11: Phl p wild type sequence, Table 2 (protein)
chain: MATSWTLPDHPTLPKGKTVAVIVLDGWGEASADQYNCIHRAETPVMDSLKNGAPEKWTLVKAHGTAVGLPSDDDMGNSEVGHNALGAGRIFAQGAKLVDAALASGKIWEAEGFNYIKESFAEGTLHLIGLLSDGGVHSRLDQVQLLVKGASERGAKRIRLHILTDGRDVLDGSSVGFVETLENDLAQLREKGVDAQVASGGGRMYVTMDRYENDWDVVKRGWDAQVLGEAPYKFKSALEAVKTLRAEPKANDQYLPAFVIVDESGKSVGPIVDGDAVVTFNFRADRMVMLAKALEFADFDKFDRVRVPKIKYAGMLQYDGELKLPNKFLVSPPLIERTSGEYLVKNGVRTFACSETVKFGHVTFFWNGNRSGYFDETKEEYIEIPSDSGITFNEQPKMKALEIAEKTRDAILSGKFDQVRINLPNGDMVGHTGDIEATVVACKAADEAVKIVLDAVEQVGGIYLVTADHGNAEDMVKRNKSGQPALDKSGSIQILTSHTLQPVPVAIGGPGLHPGVKFRSDINTPGLANVAATVMNLHGFQAPDDYETTLIEVAD
modifications: Phleum Pratense
  NTGA's containing at least one T cell epitope, Th+ (Col 2): 11
  No of PG+ & th+ peptides per NTGA: 5
  No of PP & Th+ peptides per NTGA: 1
  # Th+: 0
